Experimental data: patent US20260207704A1, “STAPLED PEPTIDES AND METHODS THEREOF” (priority 2022, published 2026)
Blank lines part the entries; values can stand above or below the molecule they belong to. *1 amine or outer side, *2 acyl side, *3 side chain or, on linkers, in order; H or OH if unused. Bridges are numbered along the chain shown (N, C = ends). Primed or numbered codes have the meaning given here. [ ]: non-standard residue; d: D form. PyrS2 = (S)-3-amino-1-((pent-4-en-1-yloxy)carbonyl)pyrrolidine-3-carboxylic acid, olefin staple residue, C=CCCCOC(=O)N1CC[C@@](N[*:1])(C(=O)[*:2])C1; PyrS2(5) = (S)-3-amino-1-((pent-4-en-1-yloxy)carbonyl)pyrrolidine-3-carboxylic acid, C=CCCCOC(=O)N1CC[C@@](N[*:1])(C(=O)[*:2])C1; B5(5) = 2-amino-2-(pent-4-en-1-yl)hept-6-enoic acid (two olefin arms), C=CCCCC(CCCC=C)(N[*:1])C(=O)[*:2]; Phe(3-COOH) = N[C@@H](Cc1cccc(C(=O)O)c1)C(=O)O; 2F3MeF = Cc1cccc(C[C@H](N[*:1])C(=O)[*:2])c1F; Bta = N[C@@H](Cc1csc2ccccc12)C(=O)O; αAllylPro = C=CC[C@@]1(C(=O)O)CCCN1; tBuAla = CC(C)(C)C[C@H](N)C(=O)O; 3Thi = N[C@@H](Cc1ccsc1)C(=O)O; AsnR = not defined here; GlnR = not defined here; B5 = not defined here

What was measured:
[1] = test system: beta-catenin/TCF; type: cell-based; conditions: COLO320DM cells
[2] = mouse plasma pharmacokinetics; type: in vivo; conditions: single intraperitoneal (IP) dose at 100 mg/kg
[3] = biological target: T1, beta-catenin/TCF4 (Homo sapiens, UniProt P35222); assay: Nano-BRET target engagement assay (HEK293 cells); type: cell-based; conditions: read-out: NanoBRET Abs IC50
T1 construct: expressed in transfected cells; host or cells: HEK293 cells
T1 sequence (P35222 1-781): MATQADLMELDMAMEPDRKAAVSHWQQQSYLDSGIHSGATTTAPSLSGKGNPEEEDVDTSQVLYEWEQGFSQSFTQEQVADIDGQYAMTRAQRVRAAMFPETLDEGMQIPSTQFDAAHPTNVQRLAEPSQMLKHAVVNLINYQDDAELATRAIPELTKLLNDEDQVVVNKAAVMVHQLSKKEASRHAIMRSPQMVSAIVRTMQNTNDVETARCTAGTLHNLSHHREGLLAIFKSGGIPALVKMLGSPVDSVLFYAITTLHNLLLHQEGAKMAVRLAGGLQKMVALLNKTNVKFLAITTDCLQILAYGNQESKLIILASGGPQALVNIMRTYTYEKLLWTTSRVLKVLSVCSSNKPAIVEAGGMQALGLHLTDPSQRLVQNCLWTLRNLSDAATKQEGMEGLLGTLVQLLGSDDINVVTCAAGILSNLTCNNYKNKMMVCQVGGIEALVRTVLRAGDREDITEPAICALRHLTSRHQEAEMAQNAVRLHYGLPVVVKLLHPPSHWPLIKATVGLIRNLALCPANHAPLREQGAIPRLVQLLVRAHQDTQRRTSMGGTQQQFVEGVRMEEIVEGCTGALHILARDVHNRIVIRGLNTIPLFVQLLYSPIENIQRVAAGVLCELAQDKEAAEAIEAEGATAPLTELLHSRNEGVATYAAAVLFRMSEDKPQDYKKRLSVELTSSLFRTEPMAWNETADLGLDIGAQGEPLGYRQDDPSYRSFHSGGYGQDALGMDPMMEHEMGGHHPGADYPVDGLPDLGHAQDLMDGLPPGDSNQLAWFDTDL

[4] = biological target: T2, beta-catenin (Homo sapiens, UniProt P35222); assay: fluorescence polarization binding to beta-catenin; conditions: read-out: beta-Catenin FP IC50
T2 sequence (P35222 1-781): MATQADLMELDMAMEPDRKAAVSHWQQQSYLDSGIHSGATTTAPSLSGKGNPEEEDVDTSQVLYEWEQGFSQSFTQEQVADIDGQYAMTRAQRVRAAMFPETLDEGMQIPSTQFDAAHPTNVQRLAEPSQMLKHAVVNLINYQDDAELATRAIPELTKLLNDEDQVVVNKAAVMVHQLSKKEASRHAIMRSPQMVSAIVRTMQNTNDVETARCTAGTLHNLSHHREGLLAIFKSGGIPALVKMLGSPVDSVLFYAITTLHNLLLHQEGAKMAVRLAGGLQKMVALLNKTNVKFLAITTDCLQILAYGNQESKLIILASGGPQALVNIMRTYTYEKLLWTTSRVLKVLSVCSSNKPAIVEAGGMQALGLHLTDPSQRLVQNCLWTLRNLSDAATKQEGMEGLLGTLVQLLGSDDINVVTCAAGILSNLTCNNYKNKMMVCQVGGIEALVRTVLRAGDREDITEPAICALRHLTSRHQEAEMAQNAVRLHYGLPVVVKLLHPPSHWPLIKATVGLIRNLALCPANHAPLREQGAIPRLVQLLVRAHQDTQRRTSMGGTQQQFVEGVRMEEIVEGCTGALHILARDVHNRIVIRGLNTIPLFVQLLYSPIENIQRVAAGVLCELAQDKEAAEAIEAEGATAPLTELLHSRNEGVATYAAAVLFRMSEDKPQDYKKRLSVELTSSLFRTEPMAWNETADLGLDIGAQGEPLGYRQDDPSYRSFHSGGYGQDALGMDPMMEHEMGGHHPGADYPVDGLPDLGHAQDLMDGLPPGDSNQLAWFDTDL

[5] = biological target: beta-catenin (human); assay: cell-based or functional assay
[6] = biological target: beta-catenin (human); assay: fluorescence polarization; bin >750 nM
[7] = biological target: T3, beta-catenin (human, UniProt B6V8E6 146-665 (dog entry), limits assumed); assay: cell-based or functional assay
T3 sequence: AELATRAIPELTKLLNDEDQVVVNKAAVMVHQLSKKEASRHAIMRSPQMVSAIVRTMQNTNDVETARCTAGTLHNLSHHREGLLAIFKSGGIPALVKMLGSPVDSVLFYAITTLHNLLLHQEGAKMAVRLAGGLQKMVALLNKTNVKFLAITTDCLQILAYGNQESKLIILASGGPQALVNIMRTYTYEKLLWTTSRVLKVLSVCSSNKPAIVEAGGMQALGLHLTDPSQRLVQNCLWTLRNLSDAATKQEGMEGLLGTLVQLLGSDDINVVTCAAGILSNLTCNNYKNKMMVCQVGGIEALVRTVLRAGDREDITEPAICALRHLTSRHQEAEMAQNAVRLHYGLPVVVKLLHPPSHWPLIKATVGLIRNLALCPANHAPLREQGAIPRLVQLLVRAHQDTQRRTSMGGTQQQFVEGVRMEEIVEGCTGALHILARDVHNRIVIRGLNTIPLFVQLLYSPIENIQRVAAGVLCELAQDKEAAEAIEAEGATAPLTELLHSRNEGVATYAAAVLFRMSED

Molecule: CC(=O)N1CCC[C@]12CC=CCCCC1(CCCC=CCCCOC(=O)N3CC[C@@]4(C3)NC(=O)[C@H](CCCCNC(=O)CC[C@@H](C(=O)N[C@@H](C)C(N)=O)NC(=O)[C@H](Cc3csc5ccccc35)NC(=O)[C@H](Cc3ccsc3)NC4=O)NC(=O)[C@H](Cc3ccccc3)NC(=O)[C@H](C)NC(=O)C(C)(C)NC(=O)[C@H](Cc3cccc(C(=O)O)c3)NC(=O)[C@H](CCC(=O)O)NC1=O)NC(=O)[C@H](CC(C)(C)C)NC(=O)[C@H](CCC(=O)O)NC2=O (relative stereo) [I-470, Ac-PL3-Glu-Npg-B5-Glu-3COOHF-Aib-Ala-Phe-Lys*3-PyrS2-3Thi-BztA-GlnR*3-Ala-NH2]
effect on expression level of AXIN2 [1]: no or very little or non-significant effect | plasma AUC [2]: comparable plasma AUC

IC50 [3]: 3 to 10 µM | IC50 [4]: < 0.05 µM
Molecule: Ac-PL3-Asp-Npg-B5-Asp-4F3Me2COOHF-Aib-Ala-Phe-Lys*3-PyrS2-2F3MeF-BztA-GlnR*3-Ala-NH2 [I-205]

NanoBRET Abs IC50 [5]: > 10 µM | IC50 [6]: < 1 µM
B1: I-133 (peptide)
peptide: Ac-[αAllylPro]D[tBuAla][B5]D[Phe(3-COOH)][GlnR]AFL[PyrS2][2F3MeF][Bta][GlnR](39N2spiroundecane)A-NH2
modifications: staple 1-4, 4-11 (inferred); not fully specified; printed as Ac-PL3-Asp-Npg-B5-Asp-3COOHF-GlnR-Ala-Phe-Leu-PyrS2-2F3MeF-BztA-[39N2spiroundecane]GlnR-Ala-NH2; reading uncertain; also: staple C=C reduced to CH2-CH2

AXIN2 expression IC50, COLO320DM cells [7]: 1.4 µM | AXIN2 expression IC50, DLD1 cells [7]: 9.3 µM | SP5 expression IC50, DLD1 cells [7]: 9 µM
Molecule: Ac-[αAllylPro]D[tBuAla][B5]D[Phe(3-COOH)]AAFL[PyrS2][2F3MeF][Bta]Q-NH2 (staple 1-4, 4-11; not fully specified; reading uncertain) [Peptide A]

IC50 [6]: < 1 µM
B2: I-44 (peptide)
peptide: Ac-[αAllylPro]D[tBuAla][B5(5)]D[Phe(3-COOH)]AAF[AsnR][PyrS2(5)][3Thi][Bta]KA-NH2
modifications: bridge 10-14; reading uncertain; also: PL3/B5/PyrS2 staple links not placed, printed as Ac-PL3-Asp-Npg-B5-Asp-3COOHF-Ala-Ala-Phe-AsnR*3-PyrS2-3Thi-BztA-Lys*3-Ala-NH2
